# Measured values as given in the supplement of paper PMC10126150.
# ± gives the standard deviation of the averaged measurements.
# Test system: ATP
# Assay: switch fluorescence ratio, 500 uM ATP over buffer (Cy3 cluster intensity, sum of 5 cycles each) (fold (ratio)); higher = stronger signal-on switching upon ATP binding; sequences stand for … in TCGTCGGCAGCGTCAGATGTGTATAAGAGACAGTTTTTTTTTTTTTTTTTTTTTTTTT…TC
# Conditions: aptamer strand: ATP DNA aptamer (quencher-CACCTGGGGGAGTATTGCGGAGGAAGG + anchor), 100 nM annealed; ATP concentration: 500 uM
# Procedure, shortened: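 Values give the fluorescence ratio for each switch-domain sequence, averaged from per-cluster ratios of summed target-cycle to summed buffer-cycle Cy3 intensity. The Cy3-labelled switching-strand clusters sat on a modified Illumina MiSeq flow-cell, were annealed to 100 nM quencher-labelled ATP aptamer, and were imaged in selection buffer, then after 15 min with 500 uM ATP at 22 °C. Five cycles ran with NaOH stripping and re-annealing between them, and clusters outside 100-1000 RFU were excluded.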
# 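Also: ATP exposure 15 min at 22 °C before imaging.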
row,Sequence,switch fluorescence ratio
1,CGTGAAATGT,0.9863 ± 0.0075
2,CGTGAAGATG,0.9674 ± 0.0068
3,CGTGAAGGTG,1.24 ± 0.074
4,CGTGACCTTT,1.02 ± 0.048
5,CGTGACGGTT,1.03 ± 0.062
6,CGTGACTCTA,1.03 ± 0.046
7,CGTGACTGGT,0.9683 ± 0.005
8,CGTGAGAGCA,1.01 ± 0.035
9,CGTGAGCTAG,1.03 ± 0.029
10,CGTGAGCTTG,1.0004 ± 4.9e-05
11,CGTGATGTTT,1 ± 0.047
12,CGTGATTATA,0.992 ± 0.0072
13,CGTGATTCGC,1.018 ± 0.0023
14,CGTGCAAAGG,1.05 ± 0.013
15,CGTGCCATAG,1 ± 0.015
16,CGTGCCCTGC,1.06 ± 0.028
17,CGTGCGCATA,3.77 ± 1.4
18,CGTGCGTCGG,1.01 ± 0.017
19,CGTGCGTGCT,1.01 ± 0.023
20,CGTGCTGGCA,1.019 ± 0.0064
21,CGTGCTGGTT,1.01 ± 0.061
22,CGTGCTGTA,1.046 ± 0.0054
23,CGTGGAGCGA,1.04 ± 0.02
24,CGTGGAGGGA,1.01 ± 0.027
25,CGTGGATACT,1.23 ± 0.057

row,Sequence,switch fluorescence ratio
1,CGTGGATAGC,1.02 ± 0.055
2,CGTGGATGAC,0.9939 ± 0.0096
3,CGTGGATTCC,1.03 ± 0.011
4,CGTGGATTTA,0.983 ± 0.011
5,CGTGGCAGGA,1.03 ± 0.021
6,CGTGGGGGAT,1.01 ± 0.029
7,CGTGGGGTGG,1.02 ± 0.045
8,CGTGGGTTCG,0.961 ± 0.025
9,CGTGGTGTGT,0.992 ± 0.0011
10,CGTGGTGTTG,0.991 ± 0.015
11,CGTGGTTAAG,1.01 ± 0.038
12,CGTGGTTCAG,0.996 ± 0.014
13,CGTGTCCGGT,1.01 ± 0.043
14,CGTGTGATGC,1.05 ± 0.015
15,CGTGTGATGT,0.973 ± 0.03
16,CGTGTGGCGT,1.05 ± 0.016
17,CGTGTGGCTG,0.992 ± 0.034
18,CGTGTGGGGA,1.02 ± 0.045
19,CGTGTTAATT,0.982 ± 0.034
20,CGTGTTGTTG,1.02 ± 0.022
21,CGTTAAACGT,1.01 ± 0.036
22,CGTTAATTTT,0.983 ± 0.026
23,CGTTACTACG,1.06 ± 0.028
24,CGTTACTGGT,0.973 ± 0.016
25,CGTTAGCGGG,1 ± 0.018

row,Sequence,switch fluorescence ratio
1,CGTTAGGCGC,0.985 ± 0.013
2,CGTTAGGGCA,0.979 ± 0.02
3,CGTTAGTATT,0.9936 ± 0.00056
4,CGTTAGTGTA,0.99 ± 0.023
5,CGTTATATAA,1.04 ± 0.014
6,CGTTATCGTG,0.9826 ± 0.0061
7,CGTTATGGGC,0.979 ± 0.022
8,CGTTATTCAC,1.03 ± 0.036
9,CGTTATTGAG,0.95 ± 0.016
10,CGTTATTGGC,1.02 ± 0.034
11,CGTTATTTAT,0.9985 ± 0.0089
12,CGTTCAACGA,1 ± 0.029
13,CGTTCACCGG,0.959 ± 0.049
14,CGTTCACCTG,0.996 ± 0.038
15,CGTTCCAGGC,1.083 ± 0.0064
16,CGTTCCCCCA,1.355 ± 0.013
17,CGTTCGCCGG,0.99801 ± 8.6e-05
18,CGTTCTAGTG,0.974 ± 0.011
19,CGTTCTGGGG,0.984 ± 0.05
20,CGTTCTGGTC,0.999 ± 0.046
21,CGTTGAATAA,1.017 ± 0.0089
22,CGTTGATGCT,1.01 ± 0.02
23,CGTTGCACCT,0.952 ± 0.051
24,CGTTGCAGGG,0.984 ± 0.024
25,CGTTGCTATG,1.01 ± 0.028

row,Sequence,switch fluorescence ratio
1,CGTTGCTTTG,0.9869 ± 0.0016
2,CGTTGGAAGG,0.985 ± 0.021
3,CGTTGGCGTG,0.947 ± 0.036
4,CGTTGGGAAG,0.9779 ± 0.0087
5,CGTTGGGTGG,1.02 ± 0.076
6,CGTTGTAAAT,0.9823 ± 0.0071
7,CGTTGTATAG,0.971 ± 0.016
8,CGTTGTGGAA,1.006 ± 0.0056
9,CGTTGTTCGA,1.02 ± 0.012
10,CGTTGTTGAA,0.968 ± 0.036
11,CGTTGTTGGT,1.015 ± 0.009
12,CGTTTAACAC,0.997 ± 0.02
13,CGTTTAGGCA,1.02 ± 0.024
14,CGTTTATTGA,1.004 ± 0.0086
15,CGTTTCAAGG,0.975 ± 0.016
16,CGTTTCGTTG,0.9635 ± 0.0019
17,CGTTTGACCT,1.03 ± 0.026
18,CGTTTGAGTG,1.02 ± 0.023
19,CGTTTGGGCA,1.01 ± 0.017
20,CGTTTGGGTC,1.01 ± 0.031
21,CGTTTGGGTG,1.02 ± 0.055
22,CGTTTGTATC,1.02 ± 0.022
23,CGTTTGTCGG,1.01 ± 0.059
24,CGTTTGTCGT,1.04 ± 0.031
25,CGTTTGTCTA,1.01 ± 0.051

row,Sequence,switch fluorescence ratio
1,CGTTTGTTTT,1 ± 0.041
2,CGTTTTATTG,0.99 ± 0.049
3,CGTTTTGCAG,1.03 ± 0.032
4,CGTTTTGCAT,1.09 ± 0.11
5,CGTTTTGTTA,0.977 ± 0.028
6,CGTTTTGTTG,0.998 ± 0.014
7,CGTTTTTAAA,1.02 ± 0.04
8,CGTTTTTACA,1 ± 0.015
9,CGTTTTTATT,1.01 ± 0.015
10,CGTTTTTCGT,0.9779 ± 0.0038
11,CGTTTTTGGA,0.966 ± 0.018
12,CGTTTTTGTT,1 ± 0.025
13,CGTTTTTTCG,1 ± 0.075
14,CGTTTTTTCT,0.974 ± 0.015
15,CGTTTTTTTA,0.992 ± 0.018
16,CGTTTTTTTC,1.007 ± 0.01
17,CTAAAAGAGG,0.997 ± 0.019
18,CTAAAAGGGG,1.02 ± 0.021
19,CTAAAGTACT,1.11 ± 0.041
20,CTAAATATTG,0.989 ± 0.015
21,CTAACGCGCA,1.11 ± 0.0043
22,CTAAGCCCGG,1 ± 0.011
23,CTAAGGGAAG,0.9781 ± 0.00035
24,CTAAGTATGG,0.9938 ± 0.0096
25,CTAATAGTTT,1 ± 0.032

row,Sequence,switch fluorescence ratio
1,CTAATATTAA,0.999 ± 0.018
2,CTAATCGCTG,1.05 ± 0.034
3,CTAATTAGAT,1 ± 0.022
4,CTAATTATGA,1.01 ± 0.048
5,CTAATTCTG,0.98 ± 0.018
6,CTAATTGCGG,1.01 ± 0.013
7,CTAATTGTTT,0.973 ± 0.025
8,CTAATTTACA,1.081 ± 0.0097
9,CTAATTTGCT,1.04 ± 0.056
10,CTACAAAGGG,1.005 ± 0.0037
11,CTACAGGGGG,1.08 ± 0.018
12,CTACGATCGA,1.02 ± 0.015
13,CTACGGGCTG,0.9898 ± 0.0069
14,CTACTTTAGA,0.993 ± 0.036
15,CTAGAAAGGG,0.999 ± 0.02
16,CTAGAAGGCG,1.02 ± 0.052
17,CTAGAATAGG,0.985 ± 0.028
18,CTAGACAGTT,0.997 ± 0.02
19,CTAGAGGCTG,1.03 ± 0.073
20,CTAGAGGGAT,1.02 ± 0.038
21,CTAGAGGGTA,0.98923 ± 0.00094
22,CTAGATTCGT,0.996 ± 0.017
23,CTAGCGAGGG,1.01 ± 0.014
24,CTAGCGGCCA,0.991 ± 0.012
25,CTAGCGGGGG,0.993 ± 0.034

row,Sequence,switch fluorescence ratio
1,CTAGCTATGT,1 ± 0.067
2,CTAGGAGTTT,0.999 ± 0.011
3,CTAGGCAATG,1.44 ± 0.67
4,CTAGGCCTGG,1.013 ± 0.0081
5,CTAGGGGACG,1.03 ± 0.032
6,CTAGGTAACG,1.02 ± 0.033
7,CTAGGTCGGC,0.994 ± 0.042
8,CTAGGTGGCT,1.02 ± 0.073
9,CTAGGTGTG,1.01 ± 0.082
10,CTAGGTTATG,0.978 ± 0.01
11,CTAGGTTGAG,0.983 ± 0.019
12,CTAGTAGGGG,0.984 ± 0.022
13,CTAGTATATT,0.993 ± 0.025
14,CTAGTCATGC,1.06 ± 0.0097
15,CTAGTGCCAG,1.016 ± 0.0069
16,CTAGTGCTTG,1.008 ± 0.0032
17,CTAGTGGGGA,1.01 ± 0.017
18,CTAGTGTCTC,0.989 ± 0.025
19,CTAGTTCGTC,0.972 ± 0.12
20,CTATAAAGTT,0.979 ± 0.024
21,CTATAATAGG,0.961 ± 0.01
22,CTATAATGAG,0.9963 ± 0.0014
23,CTATACGGAG,1.09 ± 0.13
24,CTATACGGTT,0.983 ± 0.03
25,CTATAGAAAT,0.9991 ± 0.0091

row,Sequence,switch fluorescence ratio
1,CTATATGTTG,0.985 ± 0.053
2,CTATATTAGG,0.997 ± 0.032
3,CTATCGTGGT,0.9554 ± 0.0033
4,CTATGATTTG,0.9976 ± 0.0042
5,CTATGCGTAC,3.51 ± 0.89
6,CTATGGGATT,0.983 ± 0.022
7,CTATGTATTG,0.9695 ± 0.0096
8,CTATTAATGT,0.989 ± 0.028
9,CTATTAGGTA,0.977 ± 0.0046
10,CTATTCCACC,1.02 ± 0.023
11,CTATTGGGTT,1.02 ± 0.016
12,CTATTTCGGG,0.979 ± 0.052
13,CTCAAAAGTT,1.01 ± 0.026
14,CTCACAGGGG,3.62 ± 0.1
15,CTCACATGGG,1.07 ± 0.028
16,CTCAGAAACA,1.02 ± 0.013
17,CTCAGCCATT,1.36 ± 0.039
18,CTCAGGACAG,0.995 ± 0.044
19,CTCAGGCG,1.17 ± 0.23
20,CTCAGGGCGT,0.97546 ± 0.00044
21,CTCATAAGTT,1.01 ± 0.028
22,CTCATACGGG,1.05 ± 0.036
23,CTCATATGGA,1.01 ± 0.048
24,CTCATGTAAG,1.009 ± 0.0014
25,CTCATGTTGG,0.983 ± 0.015
